The term Kd denotes a measure of binding affinity in units of concentration. A higher Kd goes with a looser complex.

In publication PMC5726854 one finds Kd and fraction bound data, which are given here for three substances.

The target in test [1] is E. coli ribosomes (E. coli). The test can be described thus: FRAP (diffusion coefficient in living cells); E. coli cytoplasm, 30°C, 0.28 Osm; fraction bound from the effective diffusion coefficient (Equation 1); Kd per binding site from Equation 2 with 660 µM binding sites assumed.
Test [2] deals with L. lactis ribosomes (Lactococcus lactis (endogenous in NZ9000)). The test can be described thus: FRAP (diffusion coefficient in living cells); L. lactis cytoplasm, 30°C; fraction bound from the effective diffusion coefficient; Kd per binding site with the ribosome concentration assumed as in E. coli.
In test [3] the target is Hfx. volcanii ribosomes (Haloferax volcanii (endogenous in H1895)). Briefly: FRAP (diffusion coefficient in living cells); Hfx. volcanii cytoplasm, 30°C; fraction bound from the effective diffusion coefficient; Kd per binding site with the ribosome concentration assumed as in E. coli.

In test [1], +25 GFP displayed a Kd of 6.7 µM and a fraction bound of 0.99. The substance +25 GFP (expressed in L. lactis) returned a Kd in test [2] of 65 µM. In test [3], +25 GFP (expressed in Hfx. volcanii) showed a Kd of 155 µM and a fraction bound of 0.81.
